Reference: the supplement of paper PMC7125110
± gives the standard error. Fewer inactive variants are shown than the library holds.

B1: glmS ribozyme (parent)
chain: AUAAAAGCGCCAGAACUACAGAAAUGUAGUUGACGAGGAGGAGGUUUAUCGAAUUUUCGGCGGAUGCCUCCAAA

Tests used:
Conditions in all cases: with glucosamine-6-phosphate
glucosamine-6-phosphate [1] = variants of: B1; assay: self-cleavage kobs at 40 uM GlcN6P; higher = faster cleavage; RNA array
Summary of the method: (§1)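 E. coli RNA polymerase transcribed barcoded ribozyme variants in situ on sequenced MiSeq chips, which were tracked via a hybridised Cy3 probe at 37 °C. Tiles were imaged over ~14 h after glucosamine-6-phosphate (40 μM to 10 mM) in HEPES/KCl/Mg(OAc)2 buffer was flowed in. Normalised per-tile medians were fit to one- or two-exponential decays for kobs, and kcat and KM came from weighted Michaelis–Menten fits.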

glucosamine-6-phosphate [2] = variants of: B1; assay: self-cleavage kobs at 2500 uM GlcN6P; higher = faster cleavage; RNA array
Summary of the method: as §1

glucosamine-6-phosphate [3] = variants of: B1; assay: self-cleavage kobs at 10000 uM GlcN6P; higher = faster cleavage; RNA array
Summary of the method: as §1

glucosamine-6-phosphate [4] = variants of: B1; assay: self-cleavage kobs at 160 uM GlcN6P; higher = faster cleavage; RNA array
Summary of the method: as §1

glucosamine-6-phosphate [5] = variants of: B1; assay: self-cleavage kobs at 640 uM GlcN6P; higher = faster cleavage; RNA array
Summary of the method: as §1

Variant | self-cleavage kobs at 40 uM GlcN6P (glucosamine-6-phosphate [1]) | self-cleavage kobs at 2500 uM GlcN6P (glucosamine-6-phosphate [2]) | self-cleavage kobs at 10000 uM GlcN6P (glucosamine-6-phosphate [3]) | self-cleavage kobs at 160 uM GlcN6P (glucosamine-6-phosphate [4]) | self-cleavage kobs at 640 uM GlcN6P (glucosamine-6-phosphate [5])
C50G U65C C67U | 6.84e-05 ± 1.4e-05 s⁻¹ | 0.000106 ± 2e-05 s⁻¹ | 9.96e-05 ± 1.4e-05 s⁻¹ |  | 
A48U G51U U65G C71U | < 1e-05 s⁻¹ | < 1e-05 s⁻¹ |  |  | 
C50G G59A | 4.42e-05 ± 2.2e-05 s⁻¹ |  |  | 8.57e-05 ± 2.1e-05 s⁻¹ | 
G60U U69G | < 1e-05 s⁻¹ |  | < 1e-05 s⁻¹ |  | < 1e-05 s⁻¹
A48C G51U | < 1e-05 s⁻¹ |  | < 1e-05 s⁻¹ |  | < 1e-05 s⁻¹
G59A C68U U69G | < 1e-05 s⁻¹ |  |  |  | 
C50G U57A G63U A64U | 7.9e-05 ± 2.7e-05 s⁻¹ |  |  |  | 
C50G U57A C58G | 8.29e-05 ± 2.4e-05 s⁻¹ | 7.43e-05 ± 2.1e-05 s⁻¹ |  | 0.000517 ± 0.00012 s⁻¹ | 0.000297 ± 9.4e-05 s⁻¹
U49C G66C | < 1e-05 s⁻¹ |  | < 1e-05 s⁻¹ | < 1e-05 s⁻¹ | < 1e-05 s⁻¹
U55A C70U | 0.00118 ± 0.00012 s⁻¹ |  |  | 0.00271 ± 0.00065 s⁻¹ | 0.00644 ± 0.0011 s⁻¹
U57G C70G | 3.7e-05 ± 9.8e-06 s⁻¹ | 8.84e-05 ± 1.5e-05 s⁻¹ | 2.33e-05 ± 1e-05 s⁻¹ | 0.00016 ± 3e-05 s⁻¹ | 0.000103 ± 1.5e-05 s⁻¹
A52U G59A | < 1e-05 s⁻¹ | < 1e-05 s⁻¹ | < 1e-05 s⁻¹ | < 1e-05 s⁻¹ | < 1e-05 s⁻¹
A64G U65C C68A | < 1e-05 s⁻¹ | < 1e-05 s⁻¹ | < 1e-05 s⁻¹ |  | 
A48C U49G G62A | < 1e-05 s⁻¹ |  |  |  | 
A48G U65C | < 1e-05 s⁻¹ |  | < 1e-05 s⁻¹ |  | 
U56C C61U | < 1e-05 s⁻¹ | < 1e-05 s⁻¹ | < 1e-05 s⁻¹ | < 1e-05 s⁻¹ | < 1e-05 s⁻¹
U56C C61A | < 1e-05 s⁻¹ |  |  | < 1e-05 s⁻¹ | < 1e-05 s⁻¹
G51U G63U A64C | < 1e-05 s⁻¹ | < 1e-05 s⁻¹ |  |  | 
U57A C61U | < 1e-05 s⁻¹ | < 1e-05 s⁻¹ | < 1e-05 s⁻¹ |  | < 1e-05 s⁻¹
U56G G59A C68A | < 1e-05 s⁻¹ |  | < 1e-05 s⁻¹ |  | < 1e-05 s⁻¹
A53U G66A C67U | 7.59e-05 ± 1.6e-05 s⁻¹ |  | 0.00355 ± 0.00067 s⁻¹ |  | 
A48C G63A C70A | < 1e-05 s⁻¹ |  |  |  | 
C61U A64C | < 1e-05 s⁻¹ | < 1e-05 s⁻¹ | < 1e-05 s⁻¹ |  | 
C58G C61U | < 1e-05 s⁻¹ |  |  |  | 
